Source: publication PMC10170137 (Nature Communications, 2023)

Key:
EcArgC = molecular target: T1, EcArgC (Escherichia coli, UniProt P11446); experiment: Nash assay of formaldehyde; coupled to EcAckA; format: biochemical; conditions: formyl phosphate made in situ by 2 µM EcAckA from 50 mM ammonium formate and 5 mM ATP; 250 µM NAD(P)H, 1 mM CoA, 10 mM MgCl2, MOPS-KOH pH 7.0, 30 °C
T1 construct: gene argC
T1 sequence (P11446 1-334): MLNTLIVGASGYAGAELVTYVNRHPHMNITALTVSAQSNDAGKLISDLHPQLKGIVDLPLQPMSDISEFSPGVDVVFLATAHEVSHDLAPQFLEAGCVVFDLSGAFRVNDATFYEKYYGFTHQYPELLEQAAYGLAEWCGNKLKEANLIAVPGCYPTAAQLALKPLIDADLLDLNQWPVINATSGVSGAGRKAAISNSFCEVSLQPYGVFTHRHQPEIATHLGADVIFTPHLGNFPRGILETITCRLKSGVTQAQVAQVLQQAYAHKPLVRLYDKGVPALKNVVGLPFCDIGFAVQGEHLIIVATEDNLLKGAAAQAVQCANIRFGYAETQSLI

EcProA = molecular target: T2, EcProA (Escherichia coli, UniProt P07004); experiment: Nash assay of formaldehyde; coupled to EcAckA; format: biochemical; conditions: formyl phosphate made in situ by 2 µM EcAckA from 50 mM ammonium formate and 5 mM ATP; 250 µM NAD(P)H, 1 mM CoA, 10 mM MgCl2, MOPS-KOH pH 7.0, 30 °C
T2 construct: gene proA
T2 sequence (P07004 1-417): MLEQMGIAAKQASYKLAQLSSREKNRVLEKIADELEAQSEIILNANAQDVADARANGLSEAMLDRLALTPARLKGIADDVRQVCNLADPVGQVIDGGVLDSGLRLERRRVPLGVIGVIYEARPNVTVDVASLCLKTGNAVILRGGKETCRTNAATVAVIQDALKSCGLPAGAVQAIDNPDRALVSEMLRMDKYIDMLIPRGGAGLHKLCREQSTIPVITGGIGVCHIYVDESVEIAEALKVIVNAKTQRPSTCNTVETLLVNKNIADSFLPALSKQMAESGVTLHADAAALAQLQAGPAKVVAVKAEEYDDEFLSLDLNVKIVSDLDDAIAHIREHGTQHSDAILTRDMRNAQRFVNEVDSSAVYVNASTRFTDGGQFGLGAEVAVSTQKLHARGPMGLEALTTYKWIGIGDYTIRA

EcASD = molecular target: T3, EcASD (Escherichia coli, UniProt P0A9Q9); experiment: Nash assay of formaldehyde; coupled to EcAckA; format: biochemical; conditions: formyl phosphate made in situ by 2 µM EcAckA from 50 mM ammonium formate and 5 mM ATP; 250 µM NAD(P)H, 1 mM CoA, 10 mM MgCl2, MOPS-KOH pH 7.0, 30 °C
T3 construct: gene asd
T3 sequence (P0A9Q9 1-367): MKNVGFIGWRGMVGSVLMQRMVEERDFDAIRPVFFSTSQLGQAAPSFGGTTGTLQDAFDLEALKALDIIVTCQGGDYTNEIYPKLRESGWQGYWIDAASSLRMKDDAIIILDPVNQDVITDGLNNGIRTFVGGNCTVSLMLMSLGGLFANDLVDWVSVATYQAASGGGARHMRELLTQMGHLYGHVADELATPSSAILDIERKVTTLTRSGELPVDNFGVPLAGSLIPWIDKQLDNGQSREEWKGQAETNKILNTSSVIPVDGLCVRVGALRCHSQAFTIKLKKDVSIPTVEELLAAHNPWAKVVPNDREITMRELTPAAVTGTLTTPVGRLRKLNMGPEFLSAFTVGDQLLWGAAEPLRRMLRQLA

EcGapA = molecular target: T4, EcGapA (Escherichia coli, UniProt P0A9B2); experiment: Nash assay of formaldehyde; coupled to EcAckA; format: biochemical; conditions: formyl phosphate made in situ by 2 µM EcAckA from 50 mM ammonium formate and 5 mM ATP; 250 µM NAD(P)H, 1 mM CoA, 10 mM MgCl2, MOPS-KOH pH 7.0, 30 °C
T4 construct: gene gapA
T4 sequence (P0A9B2 2-331): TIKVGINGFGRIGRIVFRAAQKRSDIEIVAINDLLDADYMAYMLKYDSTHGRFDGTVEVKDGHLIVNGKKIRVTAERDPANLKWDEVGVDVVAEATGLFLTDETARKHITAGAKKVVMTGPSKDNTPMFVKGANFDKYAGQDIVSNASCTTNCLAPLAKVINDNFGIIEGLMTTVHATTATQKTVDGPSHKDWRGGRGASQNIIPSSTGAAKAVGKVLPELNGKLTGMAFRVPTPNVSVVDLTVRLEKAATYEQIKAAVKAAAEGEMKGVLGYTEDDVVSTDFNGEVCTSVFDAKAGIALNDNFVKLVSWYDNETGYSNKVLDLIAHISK

DaArgC [1] = molecular target: T5, DaArgC (Denitrovibrio acetiphilus, UniProt D4H3H4); experiment: Nash assay of formaldehyde, inhibition of formyl phosphate reductase activity; coupled to EcAckA; format: biochemical; conditions: read-out: N-acetyl-γ-glutamate / IC50
T5 construct: gene argC; dimer
T5 sequence (D4H3H4 1-334): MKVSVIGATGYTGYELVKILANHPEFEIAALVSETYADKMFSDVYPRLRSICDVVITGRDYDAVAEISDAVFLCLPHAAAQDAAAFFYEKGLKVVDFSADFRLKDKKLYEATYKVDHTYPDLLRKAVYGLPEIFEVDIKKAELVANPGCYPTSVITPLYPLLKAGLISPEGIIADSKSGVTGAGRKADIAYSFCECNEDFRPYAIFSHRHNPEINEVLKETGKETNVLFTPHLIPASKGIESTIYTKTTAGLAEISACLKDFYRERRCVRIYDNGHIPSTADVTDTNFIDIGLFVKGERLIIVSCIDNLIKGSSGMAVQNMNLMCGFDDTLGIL
From the text: (§1) Nash assay of formaldehyde, inhibition of formyl phosphate reductase activity; coupled to EcAckA on DaArgC

DaArgC [2] = molecular target: T6, DaArgC (Denitrovibrio acetiphilus, UniProt D4H3H4, G182V/L233I/S178V); experiment: as above; format: biochemical; conditions: read-out: N-acetyl-γ-glutamate / IC50
T6 construct: gene argC; dimer
From the text: as §1

[3] = substrate: NC(=O)C1=CN([C@@H]2O[C@H](COP(=O)(O)OP(=O)(O)OC[C@H]3O[C@@H](n4cnc5c(N)ncnc54)[C@H](OP(=O)(O)O)[C@@H]3O)[C@@H](O)[C@H]2O)C=CC1; experiment: Nash assay of formaldehyde, fluorescence; coupled to EcAckA; format: biochemical, Denitrovibrio acetiphilus; conditions: formyl phosphate made in situ by 10 µM EcAckA from 500 mM ammonium formate and 5 mM ATP, 10 mM MgCl2, MOPS-KOH pH 7.0, 30 °C, varied: cofactor
From the text: (§2) Nash assay of formaldehyde, fluorescence; coupled to EcAckA on DaArgC

[4] = molecular target: the molecule itself; experiment: SEC; HiLoad 16/600 Superdex 200 pg in SEC buffer (75 mM KCl, 25 mM HEPES-KOH pH 7.8), loaded straight after Ni affinity purification, before crystallisation
[5] = substrate: O=COP(=O)(O)O; experiment: Nash assay of formaldehyde, initial slopes, synthetic formyl phosphate; format: biochemical, Denitrovibrio acetiphilus; conditions: 1 mM NADPH, 10 mM MgCl2, MOPS pH 7.0, 30 °C, freshly synthesized crude formyl phosphate
From the text: Nash assay of formaldehyde, initial slopes, synthetic formyl phosphate on […]

[6] = substrate: NC(=O)C1=CN([C@@H]2O[C@H](COP(=O)(O)OP(=O)(O)OC[C@H]3O[C@@H](n4cnc5c(N)ncnc54)[C@H](O)[C@@H]3O)[C@@H](O)[C@H]2O)C=CC1; experiment: Nash assay of formaldehyde, fluorescence; coupled to EcAckA; format: biochemical, Denitrovibrio acetiphilus; conditions: formyl phosphate made in situ by 10 µM EcAckA from 250 mM ammonium formate and 5 mM ATP, 10 mM MgCl2, MOPS-KOH pH 7.0, 30 °C, varied: cofactor
From the text: as §2

O=COP(=O)(O)O [formyl phosphate]
Nash assay of formaldehyde; coupled to EcAckA (EcArgC): EcArgC and EcGapA performed best under the chosen conditions
Nash assay of formaldehyde; coupled to EcAckA (EcProA): (EcASD, EcArgC, EcGapA, EcProA), we detected FPR activity in all cases
Nash assay of formaldehyde; coupled to EcAckA (EcASD): (EcASD, EcArgC, EcGapA, EcProA), we detected FPR activity in all cases
Nash assay of formaldehyde; coupled to EcAckA (EcGapA): EcArgC and EcGapA performed best under the chosen conditions

CC(=O)N[C@@H](CCC(=O)O)C(=O)O [N-acetyl-γ-glutamate]
IC50 (DaArgC [1]): 5.1 ± 1 mM
IC50 (DaArgC [2]): 24.6 ± 7.9 mM

B1: Denitrovibrio acetiphilus N-acetyl-γ-glutamyl phosphate reductase (DaArgC), wild type (enzyme)
chain: MKVSVIGATGYTGYELVKILANHPEFEIAALVSETYADKMFSDVYPRLRSICDVVITGRDYDAVAEISDAVFLCLPHAAAQDAAAFFYEKGLKVVDFSADFRLKDKKLYEATYKVDHTYPDLLRKAVYGLPEIFEVDIKKAELVANPGCYPTSVITPLYPLLKAGLISPEGIIADSKSGVTGAGRKADIAYSFCECNEDFRPYAIFSHRHNPEINEVLKETGKETNVLFTPHLIPASKGIESTIYTKTTAGLAEISACLKDFYRERRCVRIYDNGHIPSTADVTDTNFIDIGLFVKGERLIIVSCIDNLIKGSSGMAVQNMNLMCGFDDTLGIL
notes: N-acetyl-γ-glutamyl phosphate reductase (ArgC) of Denitrovibrio acetiphilus; also called WT DaArgC; Denitrovibrio acetiphilus N-acetyl-γ-glutamyl phosphate dehydrogenase; source: E. coli BL21 (DE3), purified (Ni-Sepharose HisTrap FF, Superdex 200 SEC)
Km [3]: 0.16 ± 0.02 mM
kcat [3]: 0.66 ± 0.03 s⁻¹
kcat/Km [3]: 4100 M⁻¹ s⁻¹
binding result [4]: binds

B2: DaArgC (Denitrovibrio acetiphilus DSM 12809; G182V) (protein)
chain: MKVSVIGATGYTGYELVKILANHPEFEIAALVSETYADKMFSDVYPRLRSICDVVITGRDYDAVAEISDAVFLCLPHAAAQDAAAFFYEKGLKVVDFSADFRLKDKKLYEATYKVDHTYPDLLRKAVYGLPEIFEVDIKKAELVANPGCYPTSVITPLYPLLKAGLISPEGIIADSKSGVTVAGRKADIAYSFCECNEDFRPYAIFSHRHNPEINEVLKETGKETNVLFTPHLIPASKGIESTIYTKTTAGLAEISACLKDFYRERRCVRIYDNGHIPSTADVTDTNFIDIGLFVKGERLIIVSCIDNLIKGSSGMAVQNMNLMCGFDDTLGIL
notes: dimer
Km [5]: 31 ± 7 mM
kcat [5]: 0.11 ± 0.01 s⁻¹
kcat/Km [5]: 2.4 M⁻¹ s⁻¹
Km [6]: 0.28 ± 0.05 mM
kcat [6]: 0.08 ± 0.00 s⁻¹
kcat/Km [6]: 280 M⁻¹ s⁻¹
Km [3]: 0.04 ± 0.01 mM
kcat [3]: 0.14 ± 0.02 s⁻¹
kcat/Km [3]: 3500 M⁻¹ s⁻¹

B3: DaArgC (Denitrovibrio acetiphilus DSM 12809; G182V/L233I/S178V) (protein)
chain: MKVSVIGATGYTGYELVKILANHPEFEIAALVSETYADKMFSDVYPRLRSICDVVITGRDYDAVAEISDAVFLCLPHAAAQDAAAFFYEKGLKVVDFSADFRLKDKKLYEATYKVDHTYPDLLRKAVYGLPEIFEVDIKKAELVANPGCYPTSVITPLYPLLKAGLISPEGIIADSKVGVTVAGRKADIAYSFCECNEDFRPYAIFSHRHNPEINEVLKETGKETNVLFTPHIIPASKGIESTIYTKTTAGLAEISACLKDFYRERRCVRIYDNGHIPSTADVTDTNFIDIGLFVKGERLIIVSCIDNLIKGSSGMAVQNMNLMCGFDDTLGIL
notes: dimer
Km [5]: 18 ± 7 mM
kcat [5]: 0.12 ± 0.02 s⁻¹
kcat/Km [5]: 4.6 M⁻¹ s⁻¹
Km [6]: 0.34 ± 0.05 mM
kcat [6]: 0.09 ± 0.00 s⁻¹
kcat/Km [6]: 260 M⁻¹ s⁻¹
Km [3]: 0.05 ± 0.01 mM
kcat [3]: 0.23 ± 0.02 s⁻¹
kcat/Km [3]: 4600 M⁻¹ s⁻¹

B4: DaArgC (Denitrovibrio acetiphilus DSM 12809; G182V/S178V) (protein)
chain: MKVSVIGATGYTGYELVKILANHPEFEIAALVSETYADKMFSDVYPRLRSICDVVITGRDYDAVAEISDAVFLCLPHAAAQDAAAFFYEKGLKVVDFSADFRLKDKKLYEATYKVDHTYPDLLRKAVYGLPEIFEVDIKKAELVANPGCYPTSVITPLYPLLKAGLISPEGIIADSKVGVTVAGRKADIAYSFCECNEDFRPYAIFSHRHNPEINEVLKETGKETNVLFTPHLIPASKGIESTIYTKTTAGLAEISACLKDFYRERRCVRIYDNGHIPSTADVTDTNFIDIGLFVKGERLIIVSCIDNLIKGSSGMAVQNMNLMCGFDDTLGIL
notes: dimer
Km [5]: 38 ± 9 mM
kcat [5]: 0.17 ± 0.02 s⁻¹
kcat/Km [5]: 3.1 M⁻¹ s⁻¹
Km [6]: 0.30 ± 0.04 mM
kcat [6]: 0.12 ± 0.00 s⁻¹
kcat/Km [6]: 400 M⁻¹ s⁻¹
Km [3]: 0.06 ± 0.02 mM
kcat [3]: 0.26 ± 0.03 s⁻¹
kcat/Km [3]: 4300 M⁻¹ s⁻¹

B5: DaArgC3, triple substitution variant (G182V, S178V, L233I) of Denitrovibrio acetiphilus N-acetyl-γ-glutamyl phosphate reductase (enzyme)
chain: MKVSVIGATGYTGYELVKILANHPEFEIAALVSETYADKMFSDVYPRLRSICDVVITGRDYDAVAEISDAVFLCLPHAAAQDAAAFFYEKGLKVVDFSADFRLKDKKLYEATYKVDHTYPDLLRKAVYGLPEIFEVDIKKAELVANPGCYPTSVITPLYPLLKAGLISPEGIIADSKVGVTVAGRKADIAYSFCECNEDFRPYAIFSHRHNPEINEVLKETGKETNVLFTPHIIPASKGIESTIYTKTTAGLAEISACLKDFYRERRCVRIYDNGHIPSTADVTDTNFIDIGLFVKGERLIIVSCIDNLIKGSSGMAVQNMNLMCGFDDTLGIL
notes: N-acetyl-γ-glutamyl phosphate reductase (ArgC) of Denitrovibrio acetiphilus with G182V, S178V and L233I; Found by iterative saturation mutagenesis of DaArgC; also called formyl phosphate reductase variant; source: E. coli BL21 (DE3), purified (Ni-Sepharose HisTrap FF, Superdex 200 SEC)
binding result [4]: binds
